Data as given in patent US20210024625A1 (published 2021).

T1: PfRH5 from Plasmodium falciparum strain 3D7 (Plasmodium falciparum, UniProt Q8IFM5 25-526)
T1 sequence: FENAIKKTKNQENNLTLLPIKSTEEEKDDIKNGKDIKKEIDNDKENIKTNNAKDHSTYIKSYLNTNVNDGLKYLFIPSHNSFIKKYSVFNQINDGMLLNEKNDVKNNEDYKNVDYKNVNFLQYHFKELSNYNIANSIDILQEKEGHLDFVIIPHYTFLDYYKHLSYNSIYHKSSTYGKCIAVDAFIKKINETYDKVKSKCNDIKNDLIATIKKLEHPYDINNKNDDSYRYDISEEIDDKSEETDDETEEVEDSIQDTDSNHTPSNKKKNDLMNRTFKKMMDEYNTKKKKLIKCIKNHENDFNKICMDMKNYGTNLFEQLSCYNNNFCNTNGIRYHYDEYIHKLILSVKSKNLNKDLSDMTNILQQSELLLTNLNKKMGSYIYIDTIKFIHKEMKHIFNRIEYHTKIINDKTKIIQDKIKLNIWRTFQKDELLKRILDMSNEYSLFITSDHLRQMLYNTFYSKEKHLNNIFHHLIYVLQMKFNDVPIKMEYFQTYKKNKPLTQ

B1: H1H29209P2 (antibody, V domains shown)
VH: QLQLQESGPGLVKPSETLSLTCTVSGGSISSRSHYWGWIRQPPGKGLEWIGSIYYSGSTYYNPSLKSRVTISVDTSKNQFSLKLSSVTAADTAVYYCARLGWYAEEAFEIWGQGTMVTVSS
VL: not shown
B2: H1H29214P2 (antibody, V domains shown)
VH: QLQLQESGPGLVKPSETLSLTCTVSGGSISSSSYYWGWIRQPPGKGLEWIGSIYYSGSTYYNPSLKSRVTISVDTSKNQFSLKLSSVTAADTAVYYCARQGRWERENFDYWGQGTLVTVSS
VL: not shown
B3: H1H29138P (antibody, V domains shown)
VH: QVQLVESGGGVVQPGRSLRLSCAASGFTFSTYGMHWVRQAPGKGLEWVAVIWYDGTNKYYADSVKGRFTISRDNSKNTLYLQMISLRAEDTAVYYCARDPSGGDHYYYYGMDVWGQGTTVTVSS
VL: DIQMTQSPSSLSASVGDRITITCQASQDISNYLNWYQQKPGKAPNLLISDASDLETGVPSRFSGSGSGTDFTFTISSLQPEDFATYYCQQYDNIPITFGQGTRLEIKR
B4: H1H29196P2 (antibody, V domains shown)
VH: EVQLVESGGDLVQPGGSLRLSCAASGFAVNGDYFSWVRQAPGKGLEWISVIYSSGNTYYADSVKGRFTISRHNSKNTLYLQMSSLRPEDTAVYYCARDFPPMSGADYWGQGTLVTVSS
VL: not shown
B5: H1H29149P2 (antibody, V domains shown)
VH: QVQLQESGPGLVKPSQTLSLTCTVSGGSISSGGYYWNWIRQHPGKGLEWIGYIYYSGSTYYNPSLKSRVTISVDTSKNQFSLKLGSVTAADTAVYYCARAPPYNWFDYWGQGTLVTVSS
VL: not shown
B6: H1H29207P2 (antibody, V domains shown)
VH: EVQLVESGGGLVQPGGSLRLSCAASGFTFSSYAMNWVRQAPGKGLEWVSAVSGSADITNYADSVKGRFTISRDNSKHTLYLQMNSLRAEDTAVYYCAKDKVYNWNYGIYYGMDVWGQGTTVTVSS
VL: not shown
B7: H1H29192P2 (antibody, V domains shown)
VH: QVQLVQSGAEVKKPGASVRVSCMASGYTFTGYYMHWVRQAPGQGLEWMGWINPNSGGTKYAQKFQGRVTMTRDTSISTAYMELSRLRSDDTAVYYCAREEVDDFWSGYLDYWGQGTLVTVSS
VL: not shown
B8: H1H29125P (antibody, V domains shown)
VH: QVQLVESGGGVVQPGRSLRLSCAASGFTFSSYGMHWVRQAPGKGLEWMAVISYDGSNKYYADSVKGRFTISRDNSKNTLFLQMNSLRPEDTAVYYCAQDGSSAIYYFYGMDVWGQGTTVTVSS
VL: DIQMTQSPSSLSASIGDRVTITCRASQDINNYLAWFQQKPGKAPKSLIYAASSLQSGVPSKFSGSGSGTDFTLTISSLQPEDFATYYCLQYNSYHPTFGQGTKLEIKR
B9: H1H29141P (antibody, V domains shown)
VH: QVQLVESGGGVVQPGRSLRLSCAASGFTFSSYGMHWVRQAPGKGLEWVTFISFDERNKYYADSVKGRFTISRDNSKNTLYLQMNSLRAEDTAMYYCASEVGYSFGHDAFDIWGQGTMVTVSS
VL: not shown
B10: H1H29198P2 (antibody, V domains shown)
VH: QVQLVQSGAEVKKPGASVKVSCKVSGYTLTELSMHWVRQAPGKGLEWMGGFDPEHGKIIYAQKFQGRVTMTEDTSTDTAYMELSSLRSEDTAVYYCATFYNWNSYYFGMDVWGHGTTVTVSS
VL: not shown
B11: H1H29163P2 (antibody, V domains shown)
VH: QVQLVQSGAEVKKPGASVKVSCKTSGYTFTAYYIHWVRQAPGQGLEWMGWINPNNGDTNYALRFQGRVTMTRDMSINTAYMELRGLRSDDTAVYYCARDDLAAAGIGWFDSWGQGTLVTVSS
VL: not shown
B12: H1H29146P2 (antibody, V domains shown)
VH: EVQLVESGGGLVQPGGSLQLSCAASGFAFSDSAIYWVRQASGKGLEWVGRIRNKANRFATAYGASVKGRFSIHRDDSKNTAYLQMNSLKTEDTAVYYCARHGHDTLTEGYGMDVWGQGTTVTVSS
VL: not shown
B13: H1H29215P2 (antibody, V domains shown)
VH: QVQLQQWGAGLLKPSETLSLTCAVSDESFSDYYWTWIRQPPGKGLEWIGEITHSGSTHYNPSLKSRVTLSVDTSKNHFSLSLNSVTAADTAIYYCARGGDYGGLLDYWGQGTLVTVSS
VL: not shown

Assays:
Experiment in all cases: cell-based or functional assay
[1] = molecular target: PfRH5 from Plasmodium falciparum strain Dd2 (Plasmodium falciparum)
[2] = molecular target: PfRH5 from Plasmodium falciparum strain W2-mef (Plasmodium falciparum)
[3] = molecular target: PfRH5 from Plasmodium falciparum strain HB3 (Plasmodium falciparum)
[4] = molecular target: PfRH5 from Plasmodium falciparum strain Cam3.II (Plasmodium falciparum)
[5] = molecular target: PfRH5 from Plasmodium falciparum strain FCR-1/FVO (Plasmodium falciparum)
[6] = molecular target: PfRH5 from Plasmodium falciparum strain 7G8 (Plasmodium falciparum)
[7] = molecular target: PfRH5 from Plasmodium falciparum strain RF7 (Plasmodium falciparum)
[8] = molecular target: PfRH5 from Plasmodium falciparum strain D10 (Plasmodium falciparum)
[9] = molecular target: T1, PfRH5 from Plasmodium falciparum strain …

| Binder | Max growth inhibition (%) [1] [%] | Max growth inhibition (%) [2] [%] | Max growth inhibition (%) [3] [%] | Max growth inhibition (%) [4] [%] | Max growth inhibition (%) [5] [%] | Max growth inhibition (%) [6] [%] | Max growth inhibition (%) [7] [%] | Max growth inhibition (%) [8] [%] | Max growth inhibition (%) [9] [%] |
| --- | --- | --- | --- | --- | --- | --- | --- | --- | --- |
| B1 | 38.1 | 39.6 | 52.4 | 47.3 | 19.2 | 49.9 | 11.9 | 72.7 |  |
| B2 | 47.2 | 52.7 | 59.1 | 46.7 | 13.1 | 56.7 | 11.2 | 76.5 |  |
| B3 | 74.4 | 66.4 | 51.4 | 48.7 | 84.1 | 57.4 | 51.4 | 57.1 | 58.5 |
| B4 | -1.65 | 17 | 26.8 | 6.09 | 21.9 | 23.4 | 3.78 | 14.3 |  |
| B5 |  | 42.8 | 40 | 36.2 | 58 |  | 14.7 | 66 | 44.1 |
| B6 | 61.3 | 65.2 | 49.3 | 45.3 | 69.2 | 58.7 | 31.1 | 73.9 |  |
| B7 | -15.2 | 4.35 | 5.62 | -3.38 | 15.1 | 12.4 | -7.69 | 8.7 |  |
| B8 | 51.4 | 64.6 |  | 42.7 | 67.6 | 47 | 21 | 75.4 | 51.1 |
| B9 | 65.3 | 56.2 | 50 | 49.3 | 74.2 | 54.6 | 32.1 | 50 | 48.2 |
| B10 | 10.1 | -3.61 | 15.5 | 14.7 | 11.1 | 5.31 | 1.53 | 4.38 |  |
| B11 | 61.2 | 63.7 | 56.5 | 46.7 | 64.5 | 62.6 | 10.7 |  | 55.6 |
| B12 |  | 0.57 | 33.9 | 8.18 | 7.32 | 19.1 | 5.97 | 10.8 | 8.57 |
| B13 | 22.8 | 37.2 | 30.1 | 27.2 | 54 | 33.2 | 11.3 | 35.8 |  |
